Data reported in patent US20030203451A1 (Genentech, published 2003).

Experiments:
[1] = target: recombinant IL-17E (baculovirus, Examples 33/34) (human) (UniProt Q9H293); assay: SPR (BIAcore 1000), IL-17E immobilized on CM5 chip, IL-17RH1 ECD in solution, 1:1 model
[2] = target: T1, IL-17RH1 (PRO5801) expressed on transfected 293 cells (human, UniProt Q9NRM6 18-502); assay: FACS on 293 cells co-transfected with GFP and IL-17RH1, ligand-Fc detected with PE anti-human Fc antibody, GFP-positive cells
T1 construct: also called IL-17RH1 expressing cells
T1 sequence: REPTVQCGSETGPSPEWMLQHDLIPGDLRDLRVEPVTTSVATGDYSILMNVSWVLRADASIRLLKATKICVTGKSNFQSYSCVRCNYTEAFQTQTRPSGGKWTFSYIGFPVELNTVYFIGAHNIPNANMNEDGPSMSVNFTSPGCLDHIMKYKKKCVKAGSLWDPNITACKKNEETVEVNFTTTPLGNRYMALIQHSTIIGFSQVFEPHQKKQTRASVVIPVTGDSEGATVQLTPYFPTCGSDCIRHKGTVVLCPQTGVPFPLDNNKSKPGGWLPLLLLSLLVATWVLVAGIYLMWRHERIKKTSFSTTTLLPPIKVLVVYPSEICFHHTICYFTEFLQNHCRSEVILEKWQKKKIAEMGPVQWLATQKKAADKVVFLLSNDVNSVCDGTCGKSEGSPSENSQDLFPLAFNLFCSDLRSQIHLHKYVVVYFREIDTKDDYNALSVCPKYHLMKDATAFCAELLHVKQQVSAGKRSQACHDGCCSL

[3] = target: T1, IL-17RH1 (PRO5801) expressed on …; assay: flow cytometry competition against IL-17E immunoadhesin on IL-17RH1-transfected 293 cells
[4] = target: T2, IL-17R extracellular domain (residues 1-288), baculovirus, Examples 33/34 (human, UniProt Q96F46 33-320); assay: SPR (BIAcore), IL-17F immobilized, receptor ECD in solution
T2 construct: range 1-288; also called IL-17R ECD

[5] = target: T2, IL-17R extracellular domain (residues …); assay: SPR (BIAcore)
[6] = target: T3, IL-17RH1 (PRO5801) extracellular domain (residues 1-275), baculovirus, Examples 33/34 (human) (UniProt Q9NRM6); assay: SPR (BIAcore 1000), IL-17RH1 ECD immobilized on CM5 chip, IL-17E in solution, 1:1 model
T3 sequence: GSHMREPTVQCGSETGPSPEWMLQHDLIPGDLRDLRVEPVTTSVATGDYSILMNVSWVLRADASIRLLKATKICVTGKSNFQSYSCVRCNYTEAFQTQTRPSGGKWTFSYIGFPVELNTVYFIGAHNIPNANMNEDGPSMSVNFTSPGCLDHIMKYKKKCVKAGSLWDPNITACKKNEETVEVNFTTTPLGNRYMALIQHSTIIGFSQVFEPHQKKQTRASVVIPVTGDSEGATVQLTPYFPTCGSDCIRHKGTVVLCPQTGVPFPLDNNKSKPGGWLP

## IL-17RH1 (PRO5801) extracellular domain (residues 1-275), baculovirus, Examples 33/34 (from UniProt Q9NRM6 18-292) (receptor)
[1]
  Kd: 1.1 nM
  koff: 0.0007 s⁻¹
  kon: 670000 M⁻¹ s⁻¹

B1: IL-17E-Fc fusion protein (IL-17E immunoadhesin) (Fc fusion)
chain: YSHWPSCCPSKGQDTSEELLRWSTVPVPPLEPARPNRHPESCRASEDGPLNSRAISPWRYELDRDLNRLPQDLYHARCLCPHCVSLQTGSHMDPRGNSELLYHNQTVFYRRPCHGEKGTHKGYCLERRLYRVSLACVCVRPRVMG
notes: not shown: Fc region of human IgG1, fused in frame at the C-terminus
[2]
  binding result: binds

B2: His epitope tagged IL-17E (E. coli, refolded) (ligand)
chain: B1 chain
notes: also called IL-17E 8xHis-tag fusion; not shown: 8xHis-tag fusion
[3]
  binding result: binds

B3: recombinant IL-17F (baculovirus, Examples 33/34) (ligand)
chain: GSHMRKIPKVGHTFFQKPESCPPVPGGSMKLDIGIINENQRVSMSRNIESRSTSPWNYTVTWDPNRYPSEVVQAQCRNLGCINAQGKEDISMNSVPIQQETLVVRRKHQGCSVSFQLEKVLVTVGCTCVTPVIHHVQ
modifications: N-glycosylation at Asn 53 (mature numbering); about 3 kDa carbohydrate per dimer
notes: The same protein was crystallized; also called IL-17F (PRO20110); immobilized IL-17F
[4]
  binding result: no binding (tested: up to 1 µM)

B4: recombinant IL-17E (baculovirus, Examples 33/34) (ligand)
chain: GSHMYSHWPSCCPSKGQDTSEELLRWSTVPVPPLEPARPNRHPESCRASEDGPLNSRAISPWRYELDRDLNRLPQDLYHARCLCPHCVSLQTGSHMDPRGNSELLYHNQTVFYRRPCHGEKGTHKGYCLERRLYRVSLACVCVRPRVMG
notes: also called IL-17E (PRO10272); soluble IL-17E
[5]
  binding result: no binding
[6]
  Kd: 1.4 nM
  koff: 0.00062 s⁻¹
  kon: 430000 M⁻¹ s⁻¹
